Assay results: paper doi:10.1101/2021.03.15.435411
“And” between values parts separate entries of the source, which are not always exact repeats. Equal entries are not always repeated. Where two headings read alike, the source gives them in different places.

Columns and labels:
[1] = target: WAVE1ΔN, minimal Arp2/3-activating fragment of human WAVE1 (PVCA) (human); assay: FRET or BRET
[2] = target: WAVE1ΔN, minimal Arp2/3-activating fragment of human WAVE1 (PVCA) (human); assay: FRET or BRET; remark: listed apart in the source
[3] = target: Native bovine (β, γ)-actin (bovine) (UniProt P60712); assay: TIRF microscopy, KD calculated from rate constants
[4] = target: Native bovine (β, γ)-actin (bovine) (UniProt P60712); assay: single-molecule / single-filament TIRF microscopy
[5] = target: Native bovine (β, γ)-actin (bovine) (UniProt P60712); assay: single-filament TIRF microscopy

| fold reduction of affinity against wild-type CP [3] [fold] | fold change of kon against wild-type CP [4] [fold] | fold change of koff against wild-type CP [5] [fold] | Substance | percent quenching of NPF donor fluorescence [1] [%] | percent quenching of NPF donor fluorescence [2] |
| --- | --- | --- | --- | --- | --- |
|  |  |  | Atto540Q-quencher labeled Acanthamoeba castellani actin monomers (natural protein) | 14 | 59% and 69% |
| 10 | 3 | 3 | Capping protein lacking the last 23 amino acids of the β subunit (CPαβΔ23) (from UniProt P47753;P47757-2) (complex) |  |  |
